The source of these data is patent US20050266009A1.

Assay [1] concerns the target T1, CCR5 (residues 1-18) derived peptide sulfated at 1st tyrosine position.
T1 sequence (peptide, sulfated at 1st tyrosine position): MDYQVSSPIYDINYYTSE
Description: ELISA on coated peptide. (ELISA stands for enzyme-linked immunosorbent assay.)

The target in assay [2] is T2, CCR5 (residues 1-18) derived peptide sulfated at 2nd tyrosine position.
T2 sequence (peptide, sulfated at 2nd tyrosine position): MDYQVSSPIYDINYYTSE
Description: ELISA on coated peptide.

Assay [3] addresses T3, CCR5 (residues 1-18) derived peptide sulfated at 3rd tyrosine position.
T3 sequence (peptide, sulfated at 3rd tyrosine position): MDYQVSSPIYDINYYTSE
Description: ELISA on coated peptide.

Assay [4] concerns the target T4, GPIb (residues 268-285) derived peptide sulfated at 1st tyrosine position.
T4 sequence (peptide, sulfated at 1st tyrosine position): GDEGDTDLYDYYPEEDTE
Description: ELISA on coated peptide.

The target of assay [5] is T5, GPIb (residues 268-285) derived peptide sulfated at 3rd tyrosine position.
T5 sequence (peptide, sulfated at 3rd tyrosine position): GDEGDTDLYDYYPEEDTE
Description: ELISA on coated peptide.

The target in assay [6] is T6, PSGL-1 (residues 42-58) derived peptide sulfated at 1st tyrosine position.
T6 sequence (peptide, sulfated at 1st tyrosine position): QATEYEYLDYDFLPETE
Description: ELISA on coated peptide.

The target in assay [7] is T7, PSGL-1 (residues 42-58) derived peptide sulfated at 2nd tyrosine position.
T7 sequence (peptide, sulfated at 2nd tyrosine position): QATEYEYLDYDFLPETE
The assay can be described thus: ELISA on coated peptide.

Assay [8] deals with T8, PSGL-1 (residues 42-58) derived peptide sulfated at 3rd tyrosine position.
T8 sequence (peptide, sulfated at 3rd tyrosine position): QATEYEYLDYDFLPETE
The assay can be described thus: ELISA on coated peptide.

For assay [9], the target named is GPIb on guinea pig platelets (guinea pig). The assay can be described thus: cell-based or functional assay.
The target of assay [10] is T9, PSGL-1 (P-Selectin Glycoprotein Ligand-1) on cells (human) (UniProt Q14242).
T9 sequence (looked up): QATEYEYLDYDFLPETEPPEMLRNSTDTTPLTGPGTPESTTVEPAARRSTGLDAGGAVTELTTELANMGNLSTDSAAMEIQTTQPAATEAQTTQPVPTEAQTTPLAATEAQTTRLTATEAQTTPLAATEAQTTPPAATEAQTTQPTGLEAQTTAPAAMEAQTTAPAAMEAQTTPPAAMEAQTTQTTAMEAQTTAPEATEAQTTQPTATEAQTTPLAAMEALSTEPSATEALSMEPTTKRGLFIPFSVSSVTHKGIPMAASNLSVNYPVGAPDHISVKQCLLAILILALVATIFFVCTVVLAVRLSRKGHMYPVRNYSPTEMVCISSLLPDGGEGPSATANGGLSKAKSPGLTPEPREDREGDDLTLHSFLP
The assay can be described thus: FACS on ML-2 cells in PBS, purified scFv.

Assay [11] addresses T9, PSGL-1 (P-Selectin Glycoprotein Ligand-1) on cells (human). The assay can be described thus: FACS on ML-2 cells in 50% plasma, purified scFv.
The target is the same in assay [12]. Description: FACS, whole blood sample #1, monocytes, 1 µg scFv. (In general: A flow cytometer gives signals particle by particle.)
For assay [13] the target is unchanged. The assay can be described thus: FACS, whole blood sample #2, monocytes, 1 µg scFv.
Assay [14] has the same target. The assay can be described thus: FACS, whole blood sample #1, lymphocytes, 1 µg scFv.
Assay [15] shares this target. Description: FACS, whole blood sample #1, monocytes, 0.1 µg scFv.
The target is the same in assay [16]. Description: FACS, whole blood sample #1, monocytes, 0.5 µg scFv.
The target is the same in assay [17]. Description: FACS, whole blood sample #2, lymphocytes, 1 µg scFv.
Assay [18] has the same target. The assay can be described thus: FACS, whole blood sample #2, monocytes, 0.1 µg scFv.
Assay [19] shares this target. The assay can be described thus: FACS, whole blood sample #2, monocytes, 0.5 µg scFv.
The target is the same in assay [20]. Description: FACS, whole blood sample #1, granulocytes, 1 µg scFv.
Assay [21] has the same target. The assay can be described thus: FACS, whole blood sample #2, granulocytes, 1 µg scFv.
The target is the same in assay [22]. Description: FACS, whole blood sample #1, lymphocytes, 0.1 µg scFv.
For assay [23] the target is unchanged. Description: FACS, whole blood sample #1, lymphocytes, 0.5 µg scFv.
The target is the same in assay [24]. Description: FACS, whole blood sample #2, lymphocytes, 0.1 µg scFv.
The target is the same in assay [25]. The assay can be described thus: FACS, whole blood sample #2, lymphocytes, 0.5 µg scFv.
The target is the same in assay [26]. The assay can be described thus: FACS, whole blood sample #1, granulocytes, 0.1 µg scFv.
The target is the same in assay [27]. The assay can be described thus: FACS, whole blood sample #1, granulocytes, 0.5 µg scFv.
The target is the same in assay [28]. Description: FACS, whole blood sample #2, granulocytes, 0.1 µg scFv.
The target is the same in assay [29]. The assay can be described thus: FACS, whole blood sample #2, granulocytes, 0.5 µg scFv.
A further assay has as its target glycocalicin (UniProt P07359). The assay can be described thus: SPR (BIAcore 3000), glycocalicin immobilized on CM5 chip. (In general: Surface plasmon resonance follows binding to a sensor surface in real time, without labels.)
Assay [30] deals with GPIb on human platelets (human) (UniProt P07359). Description: FACS on platelets, PRP sample #1, 1 µg scFv; PRP sample #1, 1 µg scFv.
The target is the same in assay [31]. Description: FACS on platelets, PRP sample #1, 2 µg scFv; PRP sample #1, 2 µg scFv.
The target is the same in assay [32]. Description: FACS on platelets, PRP sample #2, 1 µg scFv; PRP sample #2, 1 µg scFv.
Assay [33] has the same target. The assay can be described thus: FACS on platelets, PRP sample #2, 2 µg scFv; PRP sample #2, 2 µg scFv.
Assay [34] has the same target. Description: FACS on platelets in PRP, 1 µg scFv; mean of PRP samples #1 and #2, 1 µg scFv.
The target in assay [35] is T10, CCR5 (residues 1-18) derived peptide, non-sulfated.
T10 sequence (peptide): MDYQVSSPIYDINYYTSE
Description: ELISA on coated peptide.

The target of assay [36] is T11, GPIb (residues 268-285) derived peptide, non-sulfated.
T11 sequence (peptide): GDEGDTDLYDYYPEEDTE
The assay can be described thus: ELISA on coated peptide.

The target of assay [37] is T12, PSGL-1 (residues 42-58) derived peptide, non-sulfated.
T12 sequence (peptide): QATEYEYLDYDFLPETE
Description: ELISA on coated peptide.

Assay [38] deals with GPIb on guinea pig platelets (guinea pig). Description: FACS on guinea pig platelets.

GPIb on human platelets (human), sequence (P07359 17-652): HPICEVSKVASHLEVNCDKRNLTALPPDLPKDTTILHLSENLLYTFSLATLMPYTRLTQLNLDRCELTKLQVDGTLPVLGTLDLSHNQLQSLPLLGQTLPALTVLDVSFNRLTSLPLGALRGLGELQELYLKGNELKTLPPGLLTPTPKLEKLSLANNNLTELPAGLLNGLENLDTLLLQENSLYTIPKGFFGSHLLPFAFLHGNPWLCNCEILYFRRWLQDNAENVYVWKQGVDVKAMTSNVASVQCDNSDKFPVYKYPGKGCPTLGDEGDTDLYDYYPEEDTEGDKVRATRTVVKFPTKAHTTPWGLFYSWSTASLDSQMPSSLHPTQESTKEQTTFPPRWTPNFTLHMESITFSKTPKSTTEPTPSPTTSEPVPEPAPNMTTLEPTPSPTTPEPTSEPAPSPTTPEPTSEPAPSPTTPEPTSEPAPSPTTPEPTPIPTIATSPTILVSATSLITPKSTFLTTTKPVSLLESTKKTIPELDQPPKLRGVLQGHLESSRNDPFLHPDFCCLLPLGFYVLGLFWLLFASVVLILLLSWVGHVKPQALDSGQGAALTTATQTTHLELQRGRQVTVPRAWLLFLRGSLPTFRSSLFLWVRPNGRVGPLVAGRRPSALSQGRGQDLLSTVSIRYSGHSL
glycocalicin, sequence (P07359 17-531 limits assumed): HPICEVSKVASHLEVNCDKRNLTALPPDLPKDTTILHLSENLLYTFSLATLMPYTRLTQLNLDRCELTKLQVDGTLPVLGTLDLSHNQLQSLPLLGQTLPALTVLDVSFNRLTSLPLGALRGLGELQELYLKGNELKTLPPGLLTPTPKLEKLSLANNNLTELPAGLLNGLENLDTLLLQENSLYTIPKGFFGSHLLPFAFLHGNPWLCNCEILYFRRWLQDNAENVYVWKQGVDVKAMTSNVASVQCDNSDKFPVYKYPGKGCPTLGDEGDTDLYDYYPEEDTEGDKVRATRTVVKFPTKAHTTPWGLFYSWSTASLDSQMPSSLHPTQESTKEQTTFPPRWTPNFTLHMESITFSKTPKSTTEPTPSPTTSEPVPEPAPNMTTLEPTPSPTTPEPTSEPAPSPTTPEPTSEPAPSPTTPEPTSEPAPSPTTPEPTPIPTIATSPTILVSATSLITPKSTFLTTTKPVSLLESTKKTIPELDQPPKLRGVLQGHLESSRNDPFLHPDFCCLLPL

B1: S15 scFv (scFv)
scFv: EVQLVESGGGVVRPGGSLRLSCAASGFTFDLNPKVKHMWVRQAPGKGLEWVSGINWNGGSTGYADSVKGRFTISRDNAKNSLYLQMNSLRAEDTAVYYCARLRRPSIWGQGTLVTVSRGGGGSGGGGSGGGGSSELTQDPAVSVALGQTVRITCQGDSLRSYYASWYQQKPGQAPVLVIYGKNNRPSGIPDRFSGSSSGNTASLTITGAQAEDEADYYCNSRDSSGNHVVFGGGTKLTVLGAAAEQKLISEEDLNGAA
As for B1, the ELISA reading at 450 nm in assay [1] is 0.12; in [2], 0.3; in assay [3] it was 0.16; in assay [4], 0.6; in assay [5], 0.3; in [6] it was 0.02. Besides, the ELISA reading at 450 nm stood at 0.2 in assay [7] and 0.6 in assay [8]. This molecule also registered an inhibition of guinea pig platelet aggregation, IC50 in assay [9] of 80 to 160 µg/mL. The fold binding compared to L32 and Y1 in assay [10] was greater than 100 fold; in [11], greater than 10 fold. The Geo Mean was determined as 290 in assay [12]; 340 in [13]; 120 in assay [14]; 56 in [15]; 192 in assay [16]; 112 in [17]. Also, the Geo Mean in [18] came to 69; in assay [19], 248; in assay [20], 150; in assay [21] it was 220; in [22] it was 36; in assay [23] it was 81. Further, the Geo Mean was 18 in [24]; 78 in [25]; 26 in [26]; 100 in assay [27]; 44 in assay [28]; 151 in assay [29]. Moreover, the Geo Mean in assay [30] came out at 30; in [31] it was 120; in [32] it was 23; in [33], 68. This molecule also returned a Kd with glycocalicin of 180 nM. This molecule also returned a koff with glycocalicin of 0.43 s⁻¹. In assay [34], the average geo mean of both PRP samples was determined as 26.

B2: S11 scFv (scFv, from a related filing)
scFv: EVQLVESGGGVVRPGGSLRLSCAASGFTFDLNPKVKHMWVRQAPGKGLEWVSGINWNGGSTGYADSVKGRFTISRDNAKNSLYLQMNSLRAEDTAVYYCARLRYPFFWGQGTLVTVSRGGGGSGGGGSGGGGSSELTQDPAVSVALGQTVRITCQGDSLRSYYASWYQQKPGQAPVLVIYGKNNRPSGIPDRFSGSSSGNTASLTITGAQAEDEADYYCNSRDSSGNHVVFGGGTKLTVLGAAAEQKLISEEDLNGAA
Regarding B2, the ELISA reading at 450 nm in assay [1] was 0.12; in assay [2], 0.7; in assay [3] it was 0.11; in [35] it was 0.08; in [4], 0.6; in assay [5] it was 0.3. Besides, the ELISA reading at 450 nm in assay [36] was 0.1; in [6], 0.16; in [7], 0.12; in assay [8], 0.7; in assay [37], 0.01. In assay [38], the fold binding capacity relative to Y1 amounted to 25 fold.

B3: S1 scFv (scFv, from a related filing)
scFv: EVQLVESGGGVVRPGGSLRLSCAASGFTFDLNPKVKHMWVRQAPGKGLEWVSGINWNGGSTGYADSVKGRFTISRDNAKNSLYLQMNSLRAEDTAVYYCARLRPPFLWGQGTLVTVSRGGGGSGGGGSGGGGSSELTQDPAVSVALGQTVRITCQGDSLRSYYASWYQQKPGQAPVLVIYGKNNRPSGIPDRFSGSSSGNTASLTITGAQAEDEADYYCNSRDSSGNHVVFGGGTKLTVLGAAAEQKLISEEDLNGAA
With B3, the ELISA reading at 450 nm in assay [1] came to 0.07; in assay [2] it was 0.3; in [3] it was 0.07; in assay [35] it was 0.06; in assay [4], 0.8; in assay [5], 0.15. Besides, the ELISA reading at 450 nm was determined as 0.07 in [36]; 0.1 in assay [6]; 0.08 in [7]; 0.8 in assay [8]; 0.07 in [37]. Also, in assay [38], the fold binding capacity relative to Y1 was 25 fold.

The term Kd denotes the concentration at which binding is half-saturated. In general, koff refers to the rate constant with which the complex falls apart. Low readings indicate a long-lived complex, high ones a short-lived complex.
